Data published in patent publication US8404647B2, “Peptidylarginine deiminase (PAD) inhibitors” (Chiralix B.V., priority 2008, dated 2013).
Numbered stars: 1 amine (or outer) side, 2 acyl side, 3 side chain; on linkers, the order of the positions; unused ones are H or OH. Square brackets hold non-standard residues; d marks the D form. Peptide text beside a SMILES is read from it. * marks the point of attachment. Orn(fluoroacetimidoyl) = N=C(CF)NCCC[C@H](N)C(=O)O; X1 = N=C(CCl)NCCC[C@H](N[*:1])C(=O)[*:2]; Moc = COC(=O)*

Legend:
caspase-3 = molecular target: T1, caspase-3 (Homo sapiens, UniProt P42574); experiment: Caspase-3 activity assay (Ac-DEVDpNA cleavage); assay type: biochemical, mammalian; settings: enzyme treated with inhibitor 10 min at room temperature
T1 sequence (P42574 29-175 limits assumed): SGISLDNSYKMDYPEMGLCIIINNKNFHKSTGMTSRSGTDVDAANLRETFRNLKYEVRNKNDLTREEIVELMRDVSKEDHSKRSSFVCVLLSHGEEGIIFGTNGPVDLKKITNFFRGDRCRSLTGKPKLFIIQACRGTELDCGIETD
T1 sequence (P42574 176-277 limits assumed): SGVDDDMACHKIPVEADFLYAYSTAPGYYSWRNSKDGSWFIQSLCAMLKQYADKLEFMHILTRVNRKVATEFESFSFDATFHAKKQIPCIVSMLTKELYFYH
Method: Upon incubation of purified recombinant caspase-3 with its commercially available substrate: acetyl-Asp-Glu-Val-Asp-p-nitroanilide (Ac-DEVDpNA) SEQ ID NO: 145 in CFS buffer (220 mM mannitol, 68 mM sucrose, 2mM NaCl, 2.5 mM KH2PO4, 10 mM HEPES, pH 7.4 plus a cocktail of protease inhibitors), the substrate is cleaved, pNA is released and its absorbance at 405 nm can be monitored.

transglutaminase (TG) = transglutaminase (TG) (UniProt P08587); experiment: biochemical
transglutaminase (TG), sequence (P08587 whole entry): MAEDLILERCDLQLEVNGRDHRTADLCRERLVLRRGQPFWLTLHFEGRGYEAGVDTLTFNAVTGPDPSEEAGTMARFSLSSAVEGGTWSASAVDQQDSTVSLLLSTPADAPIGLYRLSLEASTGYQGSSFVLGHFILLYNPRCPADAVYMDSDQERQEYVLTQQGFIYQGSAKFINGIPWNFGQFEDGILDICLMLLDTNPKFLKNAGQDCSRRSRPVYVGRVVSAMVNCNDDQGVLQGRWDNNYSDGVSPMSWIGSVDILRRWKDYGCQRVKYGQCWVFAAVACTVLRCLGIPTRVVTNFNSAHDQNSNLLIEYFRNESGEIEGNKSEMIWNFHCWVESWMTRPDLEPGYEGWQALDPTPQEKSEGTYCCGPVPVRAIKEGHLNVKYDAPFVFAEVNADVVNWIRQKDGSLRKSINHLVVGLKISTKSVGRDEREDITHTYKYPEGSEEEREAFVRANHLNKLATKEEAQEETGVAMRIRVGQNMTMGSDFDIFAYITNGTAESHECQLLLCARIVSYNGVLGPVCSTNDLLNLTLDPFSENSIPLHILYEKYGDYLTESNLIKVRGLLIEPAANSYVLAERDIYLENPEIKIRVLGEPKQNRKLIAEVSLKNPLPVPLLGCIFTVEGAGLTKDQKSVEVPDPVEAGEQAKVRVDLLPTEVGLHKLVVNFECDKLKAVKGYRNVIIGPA
Method: (§3) The activities of CK and TG (both purchased from Sigma-Aldrich (Schnelldorf, Germany) were assayed with the help of the commercial kits CK NAC activated liquiUV test form
(§4) Human GmbH (Wiesbaden, Germany) and the Enzymatic Assay of [sequence] from Sigma-Aldrich (Schnelldorf, Germany) according to the manufacturers' instructions.

papain = papain (Carica papaya, UniProt P00784); experiment: biochemical
papain, sequence (P00784 134-345): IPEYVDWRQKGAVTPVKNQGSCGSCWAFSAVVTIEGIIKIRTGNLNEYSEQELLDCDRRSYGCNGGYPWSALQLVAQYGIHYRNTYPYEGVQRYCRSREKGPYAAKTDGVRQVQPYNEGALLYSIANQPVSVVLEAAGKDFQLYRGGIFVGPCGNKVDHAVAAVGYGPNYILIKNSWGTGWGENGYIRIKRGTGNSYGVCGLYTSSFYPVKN
Method: The activity of papain was assessed using a similar experimental setting, based on its cleavage of pGlu-Phe-Leu-pNA in reaction buffer (25 mM Tris-HCL, pH 7.6; 150 mM NaCl).

PAD2 [1] = molecular target: T2, PAD2 (Homo sapiens, UniProt Q9Y2J8); experiment: Citrullination of synthetic peptides by recombinant human PAD2 (MALDI-TOF and ESI-Q-TOF mass spectrometry); assay type: biochemical; set-up: His6; made in house; settings: for PAD2 conversion: Arg: share of peptide still unconverted (Arg); for PAD2 conversion: 1 Cit: share of peptide with one citrulline; for PAD2 conversion: 2 Cit: share of peptide with two citrullines
T2 sequence (Q9Y2J8 whole entry, the tested form may be a part): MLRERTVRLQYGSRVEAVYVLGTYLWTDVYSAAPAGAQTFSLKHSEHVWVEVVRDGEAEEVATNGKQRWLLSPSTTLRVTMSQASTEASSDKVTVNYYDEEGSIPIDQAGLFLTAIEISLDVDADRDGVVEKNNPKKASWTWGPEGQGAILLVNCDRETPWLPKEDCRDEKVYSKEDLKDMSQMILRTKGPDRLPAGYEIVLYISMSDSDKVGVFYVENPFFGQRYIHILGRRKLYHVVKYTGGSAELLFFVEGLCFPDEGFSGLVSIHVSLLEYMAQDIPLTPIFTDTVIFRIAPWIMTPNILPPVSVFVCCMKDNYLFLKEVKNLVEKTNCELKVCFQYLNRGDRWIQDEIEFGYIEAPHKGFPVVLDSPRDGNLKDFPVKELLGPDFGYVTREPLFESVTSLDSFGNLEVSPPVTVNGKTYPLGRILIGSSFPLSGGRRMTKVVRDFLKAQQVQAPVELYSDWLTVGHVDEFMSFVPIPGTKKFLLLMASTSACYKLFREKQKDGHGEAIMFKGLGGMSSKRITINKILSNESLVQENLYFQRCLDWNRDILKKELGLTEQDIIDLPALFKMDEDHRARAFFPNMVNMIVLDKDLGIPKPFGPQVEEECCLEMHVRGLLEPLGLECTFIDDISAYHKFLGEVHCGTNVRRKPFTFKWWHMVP
Method: (§1) Subsequently, the citrullinated proteins were isolated from the cell lysates by immunoaffinity purification using the RA3 single chain antibody fragment (scFv), which is specific for citrullinated epitopes {Raats et al., 2003}. After digestion of the purified proteins with trypsin, the amino acid sequence of the resulting peptides was determined by tandem mass spectrometry. Based upon the mass spectrometry data the peptides containing citrullinated residues were identified. In total 90 and 57 citrullinated peptides were identified in proteins derived from the COS-1 cells expressing PAD2 and PAD4, respectively, and 107 and 38 citrullinated peptides were obtained from HEK-293 cell material for PAD2 and PAD4, respectively. The frequency of amino acids at each of the positions between 5 residues N-terminal and 5 residues C-terminal from a citrullinated residue was derived from the combined sequences of these sites and is illustrated in Table 1. […] The efficiency by which these peptides were citrullinated by the human PAD2 and PAD4 enzymes was investigated by incubating them with the bacterially expressed, His6-tagged and IMAC purified, recombinant enzymes, followed by analysis of the products by both MALDI-TOF and ESI-Q-TOF mass spectrometry.

PAD4 [2] = molecular target: T3, PAD4 (Homo sapiens, UniProt Q9UM07); experiment: Citrullination of synthetic peptides by recombinant human PAD4 (MALDI-TOF and ESI-Q-TOF mass spectrometry); assay type: biochemical; set-up: His6; made in house; settings: for PAD4 conversion: Arg: share of peptide still unconverted (Arg); for PAD4 conversion: 1 Cit: share of peptide with one citrulline; for PAD4 conversion: 2 Cit: share of peptide with two citrullines
T3 sequence (Q9UM07 whole entry): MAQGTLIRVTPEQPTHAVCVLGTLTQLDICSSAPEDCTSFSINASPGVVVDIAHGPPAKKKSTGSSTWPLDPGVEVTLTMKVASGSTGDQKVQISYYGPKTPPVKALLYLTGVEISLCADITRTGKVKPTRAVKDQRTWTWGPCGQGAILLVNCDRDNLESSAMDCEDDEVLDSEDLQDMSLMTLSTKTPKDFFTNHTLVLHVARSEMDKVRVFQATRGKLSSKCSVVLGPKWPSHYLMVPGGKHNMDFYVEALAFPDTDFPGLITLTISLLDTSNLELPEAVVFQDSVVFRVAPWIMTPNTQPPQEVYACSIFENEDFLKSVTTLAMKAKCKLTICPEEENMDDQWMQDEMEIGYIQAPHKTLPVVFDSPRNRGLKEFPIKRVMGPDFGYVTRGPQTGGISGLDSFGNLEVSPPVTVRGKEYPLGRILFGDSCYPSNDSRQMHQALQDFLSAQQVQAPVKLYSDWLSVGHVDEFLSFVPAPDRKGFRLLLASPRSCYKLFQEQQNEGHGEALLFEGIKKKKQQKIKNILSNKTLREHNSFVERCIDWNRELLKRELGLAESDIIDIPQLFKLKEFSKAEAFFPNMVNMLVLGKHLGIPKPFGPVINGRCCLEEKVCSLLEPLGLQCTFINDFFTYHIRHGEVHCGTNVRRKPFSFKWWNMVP
Method: as §1

creatine kinase (CK) = experiment: Creatine kinase activity (CK NAC activated liquiUV test); assay type: biochemical, mammalian; settings: enzyme treated with inhibitor 10 min at room temperature
Method: as §3, §4

His-tagged PAD4 = His-tagged PAD4 (Homo sapiens, UniProt Q9UM07); experiment: Binding of biotinylated inhibitor peptide to His-tagged PAD4 (SDS-PAGE and blot); settings: 3 h at 37° C.; binding resistant to boiling in the presence of SDS
His-tagged PAD4, sequence (Q9UM07 whole entry): as above
Method: In the following experiments mixtures of various quantities of biotinylated inhibitor peptide (biotin-Ahx-D-S-K-K-H-D-O(FA)-D-F-L-Y-S-D-amide (SEQ ID NO: 112), O(FA)=ornithine fluoroamidine, Ahx=6-aminohexanoic acid) and a fixed amount of His-tagged PAD4 were analysed. In short, 10 μl PAD4 solution was mixed with 10 μl inhibitor solution and incubated for 3 h at 37° C. After the addition of loading buffer containing SDS, samples were either boiled for 5 minutes or kept at room temperature. Samples were loaded on a 10% polyacrylamide gel and subjected to electrophoresis (about 1 h). Proteins were transferred to a PVDF membrane and developed with either streptavidin-alkaline phosphatase conjugate (FIG. 2) or with mouse-anti-His antibody followed by goat-anti-mouse alkaline phosphatase conjugate (FIG. 3), followed by visualisation using NBT/BCIP. In Table 18 the samples are specified.
In FIG. 2 the biotin group of the inhibitor is visualised. Only lanes where the biotinylated inhibitor is present show a coloured band. The position of the bands is around the expected molecular weight of PAD4 (77 kDa). This indicates binding of the biotinylated peptide to PAD4. This binding is not broken by boiling of the sample in the presence of SDS. In FIG. 3 the His-tag of PAD4 is visualised. Only lanes where PAD4 is present show a coloured band. […]

PAD4 [3] = molecular target: T3, PAD4; experiment: Conversion (R to Cit) of substrate peptides by PAD4, mass spectrometry; assay type: biochemical
Source text: From previous studies it was known that D-S-Q-F-A-F-R-G-A-S-A-S-D (designated here as L1: SEQ ID NO: 11) is a substrate for PAD2 and PAD 4. To obtain better substrates, and subsequently powerful inhibitors, we intended to identify structural elements that improve substrate properties. A set of 152 individual analog peptides was generated, each differing from L1 by one amino acid at one of the positions −4 to −1 or 1 to 4.
In Table 3 the conversion of each analog (R to Cit conversion) is depicted. Values of the analogs relate to the conversion of the analog compared to the conversion of L1 under standard conditions (100 means a conversion equal to L1, 50 means conversion of 50% of that of L1, 175 means conversion of 175% of that of L1). Numbers above 100 thus relate to amino acid substitutions that improve substrate properties.
Peptides of table 4 are represented by the following sequences SEQ ID NO: 22-31 and 33-46. Control peptide are represented by the following sequences SEQ ID NO: 11 as control L1 and SEQ ID NO: 32 as control L2. Unfortunately, a substantial number of designed peptides were too polar to be analyzed on our LC-MS system (indicated in Table 4 as n.t., not trapped on the column). We therefore also generated and tested these peptides containing two additional N-terminal F-residues to increase hydrophobicity. In this form peptides were trapped on the column and could be analyzed (see Table 5).
Based on the above results we designed 20 peptides containing multiple amino acids that improve substrate properties (see Table 7). The indicated peptides were synthesized and tested in order to identify the best substrate from this group. Here we used a test system with less enzyme (3 times less) compared to the experiments described above.
(§2) Conversion of arginine into citrulline in the substrate peptides by PAD2 or PAD4 using mass spectrometry was performed as follows. A candidate substrate peptide was incubated with a PAD as indicated for several hours at 37° C. The reaction was quenched by the addition with acetic acid. A sample was analysed on a Qtof mass spectrometer (Micromass, UK) and the mass spectrum was compared with that of the same peptide not treated with PAD. Normally, 2^+- and 3^+-ions are detected. The conversion (ΔM=0.98 Da) was calculated on the 2^+- and 3^+-ions individually, and subsequently averaged taking into account the relative peak height of the 2^+- and 3^+-signals (see FIG. 5).

PAD2 [4] = molecular target: T2, PAD2; experiment: Conversion (R to Cit) of substrate peptides by PAD2, mass spectrometry; assay type: biochemical
Method: In a similar fashion as for PAD4 we identified improved peptide substrates for PAD2. Again L1 was used as a lead compound. The set of 152 peptides from Table 3 was used and testing was performed as described before.
as §2

PAD2 [5] = settings: low doses, in vitro; cited from earlier work

Row | Compound | PAD2 conversion: Arg (PAD2 [1]) | PAD2 conversion: 1 Cit (PAD2 [1]) | PAD4 conversion: Arg (PAD4 [2]) | PAD4 conversion: 1 Cit (PAD4 [2]) | PAD2 conversion: 2 Cit (PAD2 [1]) | PAD4 conversion: 2 Cit (PAD4 [2]) | other results
1 | CC(=O)N[C@@H](CCCCN)C(=O)N[C@@H](Cc1c[nH]c2ccccc12)C(=O)N[C@@H](Cc1c[nH]cn1)C(=O)N[C@@H](CCCNC(=N)CF)C(=O)N[C@@H](CC(=O)O)C(=O)N[C@@H](Cc1ccccc1)C(=O)N[C@@H](Cc1ccccc1)C(N)=O [Peptide 0748-09FA, Ac-K-W-H-O(FA)-D-F-F-amide] (Ac-KWH[Orn(fluoroacetimidoyl)]DFF-NH2) |  |  |  |  |  |  | IC50 (caspase-3): > 1000 µM; IC50 (transglutaminase (TG)): > 1 mM; IC50 (papain): > 2 mM
2 | DSEGTWRKGPEAD [SEQ ID NO: 8] | 15% | 85% | 85% | 15% |  |  | 
3 | DDYSSSRDGYGGS [SEQ ID NO: 1] | 88% | 12% | 97% | 3% |  |  | 
4 | CC(=O)NCC(=O)N[C@@H](CC(=O)O)C(=O)N[C@@H](CCCNC(=N)CCl)C(=O)NCC(=O)N[C@@H](CO)C(=O)O [CXP5.2-078, Ac-G-D-O(CA)-G-S] (Ac-GD[X1]GS-OH; N-terminus and C-terminus assumed) |  |  |  |  |  |  | IC50 (creatine kinase (CK)): 780 µM
5 | IGSRGDRSGFGKF [SEQ ID NO: 6] | 1% | 96% | 2% | 69% | 4% | 29% | 
6 | DSYRSWRDGYYSD [SEQ ID NO: 4] | 16% | 30% | 1% | 99% | 55% | 0% | 
7 | DGYGGSRDSYSSS [SEQ ID NO: 3] | 54% | 46% | 97% | 3% |  |  | 
8 | COC(=O)N[C@H](C(=O)N[C@@H](CC(=O)O)C(=O)N[C@@H](CCCNC(=N)CF)C(=O)NCC(=O)N[C@@H](CO)C(=O)OC)[C@@H](C)O [CXP5-101, MeO2C-T-D-O(FA)-G-S-methylester] (Moc-TD[Orn(fluoroacetimidoyl)]GS-OMe) |  |  |  |  |  |  | IC50 (creatine kinase (CK)): 780 µM
9 | IEIITDRQSGKKR [SEQ ID NO: 7] | 5% | 70% | 2% | 88% | 25% | 10% | 
10 | DSSEELRGGGKSD [SEQ ID NO: 9] | 43% | 57% | 93% | 7% |  |  | 
11 | DSRFYWRGGGKSD [SEQ ID NO: 10] | 14% | 14% | 6% | 69% | 73% | 25% | 
12 | biotin-Ahx-D-S-K-K-H-D-O(FA)-D-F-L-Y-S-D-amide [biotinylated inhibitory peptide] |  |  |  |  |  |  | mode of binding of the inhibitor to PAD4 (His-tagged PAD4): covalent binding of the inhibitor to PAD4
13 | D-S-Q-F-A-F-R-G-A-S-A-S-D (DSQFAFRGASASD) [Peptide 0308-29, reference compound] | 68% | 32% | 98% | 2% |  |  | Conversion (%) (PAD4 [3]; Table 4, 13-mer peptides, PAD4): 30% (=L1); Conversion by PAD4 (%) (PAD4 [3]; Table 10): <20(=L1) %; conversion of L1 analogs by PAD4 (PAD4 [3]; relative to conversion of L1 under standard conditions (L1 = 100), single substitution at positions -4 to 4): 100%; Conversion (%) (PAD2 [4]; Table 9, PAD2): 45 (=L1) %; Conversion by PAD2 (%) (PAD2 [4]; Table 10): <20(=L1) %; conversion of L1 analogs by PAD2 (PAD2 [4]; relative to conversion of L1 (L1 = 100), single substitution at positions -4 to 4): 100%
14 | CC(=O)O[C@H]1C(=O)[C@@]2(C)[C@H]([C@H](OC(=O)c3ccccc3)[C@]3(O)C[C@H](OC(=O)[C@H](O)[C@@H](NC(=O)c4ccccc4)c4ccccc4)C(C)=C1C3(C)C)[C@]1(OC(C)=O)CO[C@@H]1C[C@@H]2O [paclitaxel] |  |  |  |  |  |  | inhibition of citrullination of MBP by PAD2 (PAD2 [5]): can inhibit citrullination of MBP by PAD2 in vitro
15 | GGYSGDRSGGGYG [SEQ ID NO: 2] | 33% | 67% | 61% | 39% |  |  | 
16 | IEIMTDRGSGKKR [SEQ ID NO: 5] | 6% | 34% | 37% | 60% | 60% | 3% | 
